This note sets out measurements from patent CN116829596A (AUSTIA THERAPEUTICS INC, dated 2023).

Assay [1] has as its target T1, 人类血浆激肽释放酶 (human plasma kallikrein) (human, UniProt P03952 20-390; P03952 391-638).
T1 construct: The active enzyme is a cleaved two-chain form; also called pkal; pKal
The experiment in a line: SPR, 37 C. (In general: In SPR one partner is held on a chip, and binding of the other changes the refractive index at the surface.)

The target in assay [2] is T1, 人类血浆激肽释放酶 (human plasma kallikrein). The experiment in a line: SPR, 37 C, pH 6.0.
Assay [3] shares this target. Put plainly: SPR, 37 C, pH 7.4.
Assay [4] has the same target. Put plainly: SPR, 37 C, pH 7.4 or pH 6.0.

T1 sequence (P03952 20-390 S143N limits assumed, chain 1 of 2): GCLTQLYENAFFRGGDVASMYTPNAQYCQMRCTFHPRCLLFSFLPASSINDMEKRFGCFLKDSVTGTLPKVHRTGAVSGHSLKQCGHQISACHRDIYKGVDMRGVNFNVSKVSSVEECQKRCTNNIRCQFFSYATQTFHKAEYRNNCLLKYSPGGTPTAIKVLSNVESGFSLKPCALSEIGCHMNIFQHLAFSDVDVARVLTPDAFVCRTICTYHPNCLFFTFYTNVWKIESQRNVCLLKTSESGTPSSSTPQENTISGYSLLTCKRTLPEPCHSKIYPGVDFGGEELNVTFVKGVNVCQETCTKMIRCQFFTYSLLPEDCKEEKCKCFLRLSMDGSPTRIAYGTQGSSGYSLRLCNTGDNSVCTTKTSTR
T1 sequence (P03952 391-638 limits assumed, chain 2 of 2): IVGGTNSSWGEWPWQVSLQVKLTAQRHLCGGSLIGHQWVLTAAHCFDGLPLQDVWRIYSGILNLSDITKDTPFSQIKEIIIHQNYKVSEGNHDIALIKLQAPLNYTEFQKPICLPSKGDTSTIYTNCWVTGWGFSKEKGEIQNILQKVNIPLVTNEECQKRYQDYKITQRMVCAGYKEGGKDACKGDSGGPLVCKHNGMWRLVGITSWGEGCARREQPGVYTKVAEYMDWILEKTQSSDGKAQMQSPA

B1: MAb4-YTE (antibody, human IgG1, kappa)
heavy: QVQLVQSGAEVKKPGSSVKVSCKASGYAFSSYWMNWVRQAPGQGLEWIGQIYPGDDDTNYNAKFQGRVTITVDKSTTTAYMELSSLRSEDTAVYFCAGSLMVTTGAPFDYWGQGTTVTVSSASTKGPSVFPLAPSSKSTSGGTAALGCLVKDYFPEPVTVSWNSGALTSGVHTFPAVLQSSGLYSLSSVVTVPSSSLGTQTYICNVNHKPSNTKVDKRVEPKSCDKTHTCPPCPAPELLGGPSVFLFPPKPKDTLYITREPEVTCVVVDVSHEDPEVKFNWYVDGVEVHNAKTKPREEQYNSTYRVVSVLTVLHQDWLNGKEYKCKVSNKALPAPIEKTISKAKGQPREPQVYTLPPSREEMTKNQVSLTCLVKGFYPSDIAVEWESNGQPENNYKTTPPVLDSDGSFFLYSKLTVDKSRWQQGNVFSCSVMHEALHNHYTQKSLSLSPG
light: DIQMTQSPSSLSASVGDRVTITCKASQDVGIAVAWYQQKPGKAPKFLIYYASHRGWGVPDRFSGSGSGTDFTLTISSLQPEDFATYFCQQYRSYPLTFGQGTKLEIKRTVAAPSVFIFPPSDEQLKSGTASVVCLLNNFYPREAKVQWKVDNALQSGNSQESVTEQDSKDSTYSLSSTLTLSKADYEKHKVYACEVTHQGLSSPVTKSFNRGEC
notes: Humanised full-length human IgG1 kappa; also called Mab-YTE
The Kd is the equilibrium constant for the complex coming apart. A higher Kd goes with weaker binding. On to B1, for which the “fold stronger binding affinity than DX-2930” value in assay [1] is > 5 倍. Moreover, the Kd amounted to 0.9 nM in assay [2] and 1.1 nM in assay [3]. In addition, the “fold affinity for plasma kallikrein over prekallikrein” value in assay [4] is > 1000 倍.

B2: MAb4-LS (antibody, human IgG1, kappa)
heavy: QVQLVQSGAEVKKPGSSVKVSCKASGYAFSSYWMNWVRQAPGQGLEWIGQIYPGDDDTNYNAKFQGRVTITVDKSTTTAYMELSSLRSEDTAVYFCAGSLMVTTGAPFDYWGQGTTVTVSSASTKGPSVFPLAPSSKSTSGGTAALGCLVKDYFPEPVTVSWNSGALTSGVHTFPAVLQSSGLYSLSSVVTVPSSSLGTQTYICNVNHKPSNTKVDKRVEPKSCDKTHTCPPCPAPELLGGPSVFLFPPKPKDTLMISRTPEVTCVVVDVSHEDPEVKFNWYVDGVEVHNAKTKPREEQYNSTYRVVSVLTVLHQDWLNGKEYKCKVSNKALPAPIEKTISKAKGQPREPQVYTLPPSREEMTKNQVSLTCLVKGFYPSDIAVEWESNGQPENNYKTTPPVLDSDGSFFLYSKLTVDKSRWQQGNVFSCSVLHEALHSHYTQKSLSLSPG
light: B1 light
notes: Humanised full-length human IgG1 kappa
B2: the “fold stronger binding affinity than DX-2930” value in assay [1] is > 5 倍. The Kd in assay [2] amounted to 1.2 nM; in assay [3] it was 2.2 nM. In addition, in assay [4], the “fold affinity for plasma kallikrein over prekallikrein” value is > 1000 倍.
